According to publication PMC8808184 (2021):

Tests used:
[1] = biological target: T1, E1 domain of chicken APP (chicken, biotin (EZ-Link NHS-PEG4-Biotin, 1:1 molar ratio) where immobilised in BLI); experiment: BLI
T1 chain: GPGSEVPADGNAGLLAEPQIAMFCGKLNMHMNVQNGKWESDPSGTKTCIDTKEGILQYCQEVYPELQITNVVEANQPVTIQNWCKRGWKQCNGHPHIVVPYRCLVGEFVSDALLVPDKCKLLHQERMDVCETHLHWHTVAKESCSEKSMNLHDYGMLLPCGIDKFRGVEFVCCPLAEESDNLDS

[2] = biological target: T2, E1 domain of human APLP1 (human, UniProt P51693 50-212, biotin (EZ-Link NHS-PEG4-Biotin, 1:1 molar ratio) where immobilised in BLI); experiment: BLI
T2 chain: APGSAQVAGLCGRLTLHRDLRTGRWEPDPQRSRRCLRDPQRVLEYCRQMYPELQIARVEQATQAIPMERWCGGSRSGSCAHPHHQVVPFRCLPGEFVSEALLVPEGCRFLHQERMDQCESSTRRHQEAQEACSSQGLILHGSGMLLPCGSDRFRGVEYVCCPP

B1: FN1–FN3 region of chicken CNTN4, T751A and V752A (domain or fragment)
chain: GSTGSPPGPPEDVTIDEITDTTAQLSWRPGADNHSPITMYVVQARTPFSVGWQAVSTVPEVIDGKTFTATVVGLNPWVEYEFRVVAANLIGIGEPSRPSENRRTEEALPEVTPANVSGGGGSKSELVITWETVPEELQNGGGFGYVVAFRPFGTISWMQAAVASPDASRYVFRNESLPPFSPYEVKVGVYNNKGEGSFSPVTVVYSAEEEPTRAPITVLARSLSATDIEISWAPPRENQHKGRIQGYEVRCWRHDEKEENARKIRTVGNQTSAKVTNLQGNALYHLAVKAYNTAGTGPSSAMVNVTTKK
- Kd [1]: 20.9 µM

B2: FN1–FN3 region of CNTN3 titrated against human APLP1(E1) (domain or fragment)
chain: PPENVKVDEITDTTAQLSWKEGKDNHSPVISYSIQARTPFSVGWQTVTTVPEVIDGKTHTATVVELNPWVEYEFRVVASNKIGGGEPSLPSEKVRTEEAVPEVPPSEVNGGGGSRSELVITWDPVPEELQNGEGFGYVVAFRPLGVTTWIQTVVTSPDTPRYVFRNESIVPYSPYEVKVGVYNNKGEGPFSPVTTVFSAEEEPTVAPSQVSANSLSSSEIEVSWNTIPWKLSNGHLLGYEVRYWNGGGKEESSSKMKVAGNETSARLRGLKSNLAYYTAVRAYNSAGAGPFSATVNVTTKKT
- Kd [2]: 9.1 µM

B3: FN1–FN3 region of CNTN5 titrated against human APLP1(E1) and human APLP2(E1) (domain or fragment)
chain: PPGIVIVEEITESTATLSWSPAADNHSPISSYNLQARSPFSLGWQTVKTVPEIITGDMESAMAVDLNPWVEYEFRVVATNPIGTGDPSTPSRMIRTNEAVPKTAPTNVSGRSGRRHELVIAWEPVSEEFQNGEGFGYIVAFRPNGTRGWKEKMVTSSEASKFIYRDESVPPLTPFEVKVGVYNNKGDGPFSQIVVICSAEGEPSAAPTDVKATSVSVSEILVAWKHIKESLGRPQGFEVGYWKDMEQEDTAETVKTRGNESFVILTGLEGNTLYHFTVRAYNGAGYGPPSSEVSATTKKS
- Kd [2]: 10.9 µM
